# Assay results published in patent US20240409645A1.
# T1: mouse IL-2Rβ (mouse) (UniProt P16297)
# T1 sequence (looked up): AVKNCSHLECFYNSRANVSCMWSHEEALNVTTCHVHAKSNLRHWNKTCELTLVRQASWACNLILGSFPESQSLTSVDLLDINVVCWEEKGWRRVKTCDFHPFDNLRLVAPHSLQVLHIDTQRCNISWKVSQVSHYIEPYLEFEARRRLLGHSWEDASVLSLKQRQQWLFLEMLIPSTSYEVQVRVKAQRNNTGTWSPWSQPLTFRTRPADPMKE
# Target: T1, mouse IL-2Rβ (mouse)
# Assay: P.E. binding ELISA on coated protein
row,Binder,P.E. binding ELISA OD
1,FJ1427_P035MP03E04 (VHH) VHH: QVQLVESGGGLVQTGGSLRLSCAVSGSHFISDVMGWYRQVPEKQRELVADMADGNSAKYADSVKGRFSILRDSVKNTVYLQMSSLKPEDTGIYYCKAGLWIAGRHSDYWGQGTQVTVSS,0.048 OD450 nm
2,FJ1427 P035MP03A06 (VHH) VHH: EVQLVESGGGLVQTGGSLRLSCAVSGSRFISDVMGWYRQVPGKARELVADMADGGSAKYADSVKGRFSIVRDSGKSTMYLQMSSLKPEDTGMYYCKAGLWIAGRHSDYWGQGTQVTVSS,0.047 OD450 nm
3,FJ1427 P035MP03D04 (VHH) VHH: QVQLVESGGGLVQPGGSLRLSCAASGFTFSNYAMSWVRQAPGKELEWVSSITSAGRGTHYADTVKGRFTISRDNDENTLYLQMNSLEPEDTAVYYCAKYSSATYYPPTPAQGRDYRGQGTQVTVSS,0.048 OD450 nm
4,FJ1427_P035MP03G02 (VHH) VHH: EVQLVESGGGLVQPGGSLRLSCAISGGTLDSYGIGWVRQAPGKQREGVSCMSRSDDRTFYADSVKGRFTISKDNAKSTVYLQMTNLKPDDTAVYYCAAVDAYGCSLVQPTTYDFWGLGTQVTVSS,0.049 OD450 nm
5,FJ1427 P035MP03E07 (VHH) VHH: QVQLVESGGGLVQAGGSLRLSCAVSGDVFVRYTMAWFRQAPGKEREFVATVTDSGRTTEYVDSVKGRFTVSRDNAKNTVYLQMNNLKPEDTAVYYCAANTDYFRIRSLDANTWGQGTQVTVSS,0.057 OD450 nm
6,FJ1427_P035MP03G09 (VHH) VHH: QVQLVESGGGLVQAGGSLRLSCVVSGDVFVRYTMAWFRQAPGKEREFVAVVTDSGRTTEYVDSVKGRFTVSRDNAKNTVYLQMNNLKPEDTAVYYCAANTDYFQIRSVDNNAWGQGTQVTVSS,0.054 OD450 nm
7,FJ1427_P035MP03B09 (VHH) VHH: QVQLVESGGGLVQAGGSLRLSCVVSGDVFVRYTMAWFRQAPGKEREFVTSITDSGRTTEYVDSVKGRFTVSRDNAKNTVYLQMNNLKPEDTAVYYCAANTDYFRIRSLDANTWGQGTQVTVSS,0.046 OD450 nm
8,FJ1427_P035MP03G05 (VHH) VHH: EVQLVESGGGLVQIGGSLRLSCAASGRTFSSITMAYFRQVPGKEREWVAGINFSGTRTFYADSVKGRFLISRDDAKSTMYLQMNSLKPEDTAVYYCAASPRGFYGPGNALYDYWGQGTQVTVSS,0.049 OD450 nm
9,FJ1427_P035MP03A07 (VHH) VHH: QVQLVESGGGLVEAGGSLRLSCAASGRAFNNFPMGWFRQAPGKEREFVAAITWISGSTLYADSVKGRFTISRDKSKNTVYLQMSGLKPEDTALYYCAAALKTITRGQHDYTYWGQGTQVTVSS,0.049 OD450 nm
10,FJ1427_P035MP03B05 (VHH) VHH: EVQLVESGGGLVQAGGSLRLACALSGDVFVRYTMAWFRQAPGKEREFVASVTDSGRTTDYVASVQGRFTVSRDNNKNTVYLQMNSLKPEDTAVYYCAANTDYFQIRSLDRNTWGQGTQVTVSS,0.05 OD450 nm
11,FJ1427 P035MP03D07 (VHH) VHH: EVQLVESGGGLVQAGGSLRLSCAASGDVFVRYTMAWFRQAPGKEREFVASVTDSGRTTDYGDSVKGRFTVSRDNAKNTVYLQMNNLKPEDTAVYYCAANTDYFQIRSLDANTWGQGTQVTVSS,0.049 OD450 nm
12,FJ1427_P035MP03F04 (VHH) VHH: EVQLVESGGGLVQTGGSLRLSCAASGSQFINDVMGWYRQVPGKQRELVADMDDTGSTKYADSVKGRFTILRDSVKNTAYLQMSNLKPEDTGVYYCKAGLWIKGRHSDYWGQGTQVTVSS,0.049 OD450 nm
13,FJ1427_P035MP03F06 (VHH) VHH: QVQLQESGGGLVQTGGSLRLSCAASGSQFINDVMGWYRQVPGKQRELVADMDDTGSTKYADSVKGRFTILRDSVKNTAYLQMSNLKPEDTGVYYCKAGLWIKGRHSDYWGQGTQVTVSS,0.048 OD450 nm
14,FJ1427 P035MP03C04 (VHH) VHH: EVQLVESGGGLVQAGASLELSCAASGGTFSSYAMGWFRQAPGKEREFVAATTRGGGRTMYAVSTEGRFSCSRDNAKNTVNLLIKNLKPEDTAVYYCAARTSYYDGTYYPASSDFDIWGQGTQVTVSS,0.048 OD450 nm
15,FJ1427 P035MP03H05 (VHH) VHH: QLQLVESGGGLVQAGGSLALSCAASGGTFSSYAMGWFRQAPGKEREFVAATTRGGGRTMYAVSTEGRFSCSRDNAKNTVYLLIKNLKPEDTAVYYCAARTSYYDGTYYPASSDFDIWGQGTQVTVSS,0.049 OD450 nm
16,FJ1427_P035MP03F02 (VHH) VHH: QVQLVESGGGLVQPGGSLRLSCAASGFTFSNYAMSWVRQAPGKGLEWVSSITGAGRGTYYADSVKGRFTISRDNDKNTLYLQMNSLKPEDTAVYYCAKYDSSTYYPPTPARGIADRGQGIQVTVSS,0.049 OD450 nm
17,FJ1427_P035MP03G07 (VHH) VHH: QVQLVESGGGLVQAGGSLRLSCAASGRTFSSDAKGWFRQAPGKEREFVAAITWAGRGTDYADSVKGRFTITRDNAKNMVYLQMSNLKPEDTAVYYCALNPEGVIGPYFRNSNRYNYWGQGTQVTVSS,0.048 OD450 nm
18,FJ1427_P035MP03A09 (VHH) VHH: QVQLVESGGGLVQAGGSLRLACAASGRTFSTLTMGWFRQAPGKEREFVAGISPSGGYAWHADSVKGRFTIDRDNAKNTVYLQTRSLRPEDTAVYYCAADHPPYGAVASRSEYEYDDWGPGTRVTVSS,0.049 OD450 nm

# Second part, the binder after the results:
row,P.E. binding ELISA OD,Binder
1,0.048 OD450 nm,FJ1427_P035MP03D03 (VHH) VHH: QVQLVESGGGLVQVGDSLRLSCAASGRTVGSANMGWFRQAPGKEREFVAVITWSTGSTVYADSVKGRFTISRDNAKNTVYLDLSSLKPEDTAVYYCAADVYPYSGNLNIMDYWGKGTQVTVSS
2,0.048 OD450 nm,FJ1427_P035MP03E06 (VHH) VHH: QVQLVESGGGLVQAGRSLGLSCAASGFTFDNYAMSWVRQAPGKGLEWVSSITGAGRGTHYADSVKGRFTISRDNAKNTLYLQMNSLKPEDTAVYYCAKYSSSTYYPPTPARGTDYRGPGTQVTVSS
3,0.047 OD450 nm,FJ1427_P035MP03C07 (VHH) VHH: QVQLVESGGGLVQAGDSLRLSCAASGRSLSTDCMGWVRQAPGKEREFVAGITWGTGSTLYADSVEGRFTISKDNAKNTGYLQMSSLKPEDTAVYYCAVDRYCYRGTVYRDWGRGTQVTVSS
4,0.05 OD450 nm,FJ1427 P035MP03A03 (VHH) VHH: EVQLVESGGGSVQTGGSLRLSCVVSGSHFISDVMGWYRQVPGKQRELVADMADGGSVKYGDSVKGRFTILRDSVKNTVTLQMSSLNPEDTGVYYCKAGLWITGRHFDYWGQGTQVTVTS
5,0.051 OD450 nm,FJ1427_P035MP03A04 (VHH) VHH: EVQLVESGGGSVQTGGSLRLSCVVSGSHFISDVMGWYRQVPGKQRELVADMADGGSVKYGDSVKGRFTILRDSVKNTVTLQMSSLNPEDTGVYYCKAGLWITGRHFDYWGQGTQVTVTS
6,0.053 OD450 nm,FJ1427_P035MP03H07 (VHH) VHH: EVQLVESGGGLVQAGGSLRLSCVVSGDVFVRYTMAWFRQAPGKEREFVAAVTDSGRTTEYVDSVKGRFTVSRDNAKNTVYLQMNNLKPEDTAVYYCAANTDYFQIRSVDNNAWGQGTQVTVSS
7,0.048 OD450 nm,FJ1427_P035MP03E08 (VHH) VHH: QVQLVESGGGLVQAGGSLRLSCAAAGRAIENYPVGWFRRAPGKEREFVAAITWISGSTLYADSVKGRFTISRDNAKNTVYLQMSSLKPEDTALYYCAAALKTITRGQNDYSYWGQGTQVTVSS
8,0.048 OD450 nm,FJ1427 P035MP03F09 (VHH) VHH: EVQLVESGGGLVQAGGSLTLSCAASGRAFSNYPVGWFRQAPGKEREFVAAITWLSGSTLYADSVEGRFTISRDNAKNTVYLLMSSLKPEDTALYFCAAALKTITRGQNDYSYWGQGTQVTVSS
9,0.054 OD450 nm,FJ1427 P035MP03C08 (VHH) VHH: EVQLVESGGGLVQAGGSLRLACALSGDVFVRYTMAWFRQAPGKEREFVASVTDSGRTTDYVASVQGRFTVSRDNNKNTVYLQMNSLKPEDTAVYYCAANTDYFQIRSLDRNTWGQGTQVTVSS
10,0.048 OD450 nm,FJ1427 P035MP03B04 (VHH) VHH: QVQLVESGGGLVQTGGSLRLSCAASGSQFINDVMGWYRQVPGKQRELVADMDDTGSTKYADSVKGRFTILRDSVKNTAYLQMSNLKPEDTGVYYCKAGLWIKGRHSDYWGQGTQVTVSS
11,0.05 OD450 nm,FJ1427_P035MP03H04 (VHH) VHH: QVQLVESGGGLVQAGGSLALSCAASGGTFSSYAMGWFRQAPGKEREFVAATTRGGGRTMYAVSTEGRFSCSRDNAKNTVYLLIKNLKPEDTAVYYCAARTSYYDGTYYPASSDFDIWGQGTQVTVSS
12,0.05 OD450 nm,FJ1427_P035MP03G03 (VHH) VHH: QVQLVESGGGLVQPGGSLGLSCAASGFTFDNYAMSWVRQAPGKGLEWVSSITGAGRGTHYADSVKGRFTISRDNAKNTLYLQMNSLKPEDTAVYYCAKYSSSTYYPPTPARGTDYRGPGTQVTVSS
13,0.048 OD450 nm,FJ1427 P035MP03F07 (VHH) VHH: QVQLVESGGGLVQAGGSLRLSCAASGRTFSSYVMGWFRQAPGKEREFVVAITGTRRTTDWPDSVKGRFTISRDNAQNTVYLDMNSLKPEDTAVYYCASARGLPVPPLGDIIHWGEGTLVTVSS
14,0.049 OD450 nm,FJ1427 P035MP03E05 (VHH) VHH: EVQLVESGGGLVQAGGSLRLSCAVSGVIFWSDVVGWYRQASGKQRELVATINLDDTKHYGEVVKGRFAISRDSHKNAYYLQLNSLKPEDTAVYYCNVRRGSEFYWGQGTQVTVSS
